The text below walks through data of publication PMC6007489 (Nucleic Acids Research, 2018).

The target of one test is Msh2–Msh3 (S. cerevisiae, UniProt P25847 1-964; P25336 1-1018). In words: far-Western, overlay or dot blot.
The target in the next test is T1, 6xHis–Saw1 (S. cerevisiae, UniProt P39735 1-261).
T1 sequence (looked up): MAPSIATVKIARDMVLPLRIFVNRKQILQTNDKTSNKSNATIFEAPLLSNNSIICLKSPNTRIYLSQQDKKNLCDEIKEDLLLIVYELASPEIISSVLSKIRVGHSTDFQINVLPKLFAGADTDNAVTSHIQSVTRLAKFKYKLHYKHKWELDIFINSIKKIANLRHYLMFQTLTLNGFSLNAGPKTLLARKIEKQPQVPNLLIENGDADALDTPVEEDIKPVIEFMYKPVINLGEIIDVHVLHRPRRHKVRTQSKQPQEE
In words: co-IP.

Sequence of Msh2–Msh3 (P25847 whole entry, chain 1 of 2): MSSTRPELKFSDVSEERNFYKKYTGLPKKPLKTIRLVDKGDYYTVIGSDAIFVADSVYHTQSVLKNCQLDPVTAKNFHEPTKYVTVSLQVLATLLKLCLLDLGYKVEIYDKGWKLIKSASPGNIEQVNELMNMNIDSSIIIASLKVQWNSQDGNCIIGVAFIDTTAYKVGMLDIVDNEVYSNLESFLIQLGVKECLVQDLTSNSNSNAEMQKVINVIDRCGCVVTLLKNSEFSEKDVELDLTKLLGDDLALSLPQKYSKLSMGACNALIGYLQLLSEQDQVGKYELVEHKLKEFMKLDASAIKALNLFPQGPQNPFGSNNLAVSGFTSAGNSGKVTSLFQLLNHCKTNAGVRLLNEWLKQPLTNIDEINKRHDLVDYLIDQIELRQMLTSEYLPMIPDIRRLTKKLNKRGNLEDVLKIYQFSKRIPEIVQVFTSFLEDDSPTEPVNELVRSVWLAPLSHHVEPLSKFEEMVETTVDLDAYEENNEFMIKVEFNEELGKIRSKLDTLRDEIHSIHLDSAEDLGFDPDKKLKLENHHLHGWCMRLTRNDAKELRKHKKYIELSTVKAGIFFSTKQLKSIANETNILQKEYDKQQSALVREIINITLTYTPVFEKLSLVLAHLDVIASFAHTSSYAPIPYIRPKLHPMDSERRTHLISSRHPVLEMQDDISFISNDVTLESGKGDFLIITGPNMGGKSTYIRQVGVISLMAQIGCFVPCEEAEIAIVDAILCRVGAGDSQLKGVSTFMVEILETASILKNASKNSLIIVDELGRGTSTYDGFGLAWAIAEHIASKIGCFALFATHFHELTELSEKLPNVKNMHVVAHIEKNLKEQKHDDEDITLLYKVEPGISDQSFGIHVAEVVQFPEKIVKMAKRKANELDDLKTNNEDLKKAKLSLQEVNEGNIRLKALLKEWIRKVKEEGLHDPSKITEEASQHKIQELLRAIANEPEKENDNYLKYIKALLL
Sequence of Msh2–Msh3 (P25336 whole entry, chain 2 of 2): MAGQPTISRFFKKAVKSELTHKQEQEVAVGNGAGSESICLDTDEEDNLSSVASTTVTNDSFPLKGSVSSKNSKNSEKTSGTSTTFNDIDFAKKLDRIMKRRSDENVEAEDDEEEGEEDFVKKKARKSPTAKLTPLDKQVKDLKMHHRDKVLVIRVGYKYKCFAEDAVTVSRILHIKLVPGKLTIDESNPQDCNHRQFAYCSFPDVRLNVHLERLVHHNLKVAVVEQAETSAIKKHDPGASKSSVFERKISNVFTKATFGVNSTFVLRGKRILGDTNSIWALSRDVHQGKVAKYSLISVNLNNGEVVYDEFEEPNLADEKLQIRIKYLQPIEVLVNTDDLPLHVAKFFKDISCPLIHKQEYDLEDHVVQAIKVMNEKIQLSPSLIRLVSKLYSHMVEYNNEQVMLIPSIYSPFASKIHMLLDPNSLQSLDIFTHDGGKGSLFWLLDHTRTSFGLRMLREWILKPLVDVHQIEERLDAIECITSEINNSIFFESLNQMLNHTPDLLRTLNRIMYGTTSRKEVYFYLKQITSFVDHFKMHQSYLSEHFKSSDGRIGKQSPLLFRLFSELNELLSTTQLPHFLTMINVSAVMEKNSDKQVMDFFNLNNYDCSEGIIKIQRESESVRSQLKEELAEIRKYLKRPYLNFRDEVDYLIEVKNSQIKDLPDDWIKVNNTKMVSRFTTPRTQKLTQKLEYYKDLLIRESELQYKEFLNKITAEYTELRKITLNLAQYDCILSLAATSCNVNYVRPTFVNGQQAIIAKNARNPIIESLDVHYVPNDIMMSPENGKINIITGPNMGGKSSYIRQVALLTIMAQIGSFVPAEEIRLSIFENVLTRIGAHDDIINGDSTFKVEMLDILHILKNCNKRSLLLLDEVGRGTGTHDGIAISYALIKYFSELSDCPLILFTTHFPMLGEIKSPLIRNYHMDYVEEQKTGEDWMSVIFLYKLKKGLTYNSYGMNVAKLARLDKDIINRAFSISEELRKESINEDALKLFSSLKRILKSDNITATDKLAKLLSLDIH

B1: His–rad1R218A–Rad10 (complex, S. cerevisiae)
chain 1: MSQLFYQGDSDDELQEELTRQTTQASQSSKIKNEDEPDDSNHLNEVENEDSKVLDDDAVLYPLIPNEPDDIETSKPNINDIRPVDIQLTLPLPFQQKVVENSLITEDALIIMGKGLGLLDIVANLLHVLATPTSINGQLKRALVLVLNAKPIDNVRIKEALEELSWFSNTGKDDDDTAVESDDELFERPFNVVTADSLSIEKRRKLYISGGILSITSAILIVDLLSGIVHPNRVTGMLVLNADSLRHNSNESFILEIYRSKNTWGFIKAFSEAPETFVMEFSPLRTKMKELRLKNVLLWPRFRVEVSSCLNATNKTSHNKVIEVKVSLTNSMSQIQFGLMECLKKCIAELSRKNPELALDWWNMENVLDINFIRSIDSVMVPNWHRISYESKQLVKDIRFLRHLLKMLVTSDAVDFFGEIQLSLDANKPSVSRKYSESPWLLVDEAQLVISYAKKRIFYKNEYTLEENPKWEQLIHILHDISHERMTNHLQGPTLVACSDNLTCLELAKVLNASNKKRGVRQVLLNKLKWYRKQREETKKLVKEVQSQDTFPENATLNVSSTFSKEQVTTKRRRTRGASQVAAVEKLRNAGTNVDMEVVFEDHKLSEEIKKGSGDDLDDGQEENAANDSKIFEIQEQENEILIDDGDAEFDNGELEYVGDLPQHITTHFNKDLWAEHCNEYEYVDRQDEILISTFKSLNDNCSLQEMMPSYIIMFEPDISFIRQIEVYKAIVKDLQPKVYFMYYGESIEEQSHLTAIKREKDAFTKLIRENANLSHHFETNEDLSHYKNLAERKLKLSKLRKSNTRNAGGQQGFHNLTQDVVIVDTREFNASLPGLLYRYGIRVIPCMLTVGDYVITPDICLERKSISDLIGSLQNNRLANQCKKMLKYYAYPTLLIEFDEGQSFSLEPFSERRNYKNKDISTVHPISSKLSQDEIQLKLAKLVLRFPTLKIIWSSSPLQTVNIILELKLGREQPDPSNAVILGTNKVRSDFNSTAKGLKDGDNESKFKRLLNVPGVSKIDYFNLRKKIKSFNKLQKLSWNEINELINDEDLTDRIYYFLRTEKEEQEQESTDENLESPGKTTDDNALHDHHNDVPEAPV
chain 2: MNNTDPTSFESILAGVAKLRKEKSGADTTGSQSLEIDASKLQQQEPQTSRRINSNQVINAFNQQKPEEWTDSKATDDYNRKRPFRSTRPGKTVLVNTTQKENPLLNHLKSTNWRYVSSTGINMIYYDYLVRGRSVLFLTLTYHKLYVDYISRRMQPLSRNENNILIFIVDDNNSEDTLNDITKLCMFNGFTLLLAFNFEQAAKYIEYLNL
In the case of B1, the binding result with Msh2–Msh3 is on record as “binds”. Also, in the test with 6xHis–Saw1, the “fold immunoprecipitated relative to His–Rad1–Rad10” value was approximately 3 fold.
